The text below walks through data of patent US20210122804A1, “PEPTIDE LIGANDS FOR BINDING TO CD38” (BicycleTx Limited, priority 2018, published 2021).

As usually defined, the Ki is a dissociation constant, usually derived from enzyme kinetics or from competition with a known ligand. The low end stands for a stronger hold on the target, the high end for a looser hold on the target.

The target of test [1] is T1, human CD38 (Homo sapiens, UniProt P28907).
T1 sequence (P28907 1-300): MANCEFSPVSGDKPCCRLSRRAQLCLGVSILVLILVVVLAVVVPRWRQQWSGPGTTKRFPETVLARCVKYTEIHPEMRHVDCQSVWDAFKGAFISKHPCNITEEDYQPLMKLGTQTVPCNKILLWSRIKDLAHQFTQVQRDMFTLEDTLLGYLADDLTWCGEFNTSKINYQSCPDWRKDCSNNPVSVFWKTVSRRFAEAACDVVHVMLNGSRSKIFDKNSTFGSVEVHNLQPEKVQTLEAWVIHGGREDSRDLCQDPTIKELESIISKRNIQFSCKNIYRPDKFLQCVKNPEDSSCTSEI
The test can be described thus: CD38 Competition Binding Assay (fluorescence polarisation). The conditions noted are these: compared with all-thioether Reference Example 1. The method, then: CD38 Competition Binding Assay Affinity of various bicycle peptide compounds for human CD38 (Ki) was determined using a fluorescence polarisation assay, using the method reported by Lea et al (Expert Opin Drug Discov. 2011 6(1): 17-3) and using the following fluorescently labelled peptides […]-Sar6-K(F1) for TBMB derivatives and […]-Sar6-K(F1) for TATA derivatives where Fl is a fluorescein molecule.
Background: In fluorescence polarisation assays a small probe gives low polarisation when free and higher when bound to something large.

Test [2] addresses T2, human CD38 (human, UniProt P28907 43-300, limits assumed).
T2 construct: construct used is not described; also called hCD38
T2 sequence (looked up): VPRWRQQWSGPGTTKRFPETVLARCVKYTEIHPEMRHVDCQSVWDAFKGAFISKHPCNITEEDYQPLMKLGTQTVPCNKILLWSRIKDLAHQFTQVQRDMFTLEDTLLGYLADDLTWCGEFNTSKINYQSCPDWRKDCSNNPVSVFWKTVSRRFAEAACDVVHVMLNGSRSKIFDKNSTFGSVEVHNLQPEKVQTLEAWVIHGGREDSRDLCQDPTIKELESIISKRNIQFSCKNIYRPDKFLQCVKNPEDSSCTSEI
The test can be described thus: fluorescence polarisation competition; tracer m11.

The target of test [3] is T2, human CD38. The test can be described thus: fluorescence polarisation competition; tracer m10.

*1 amine or outer side, *2 acyl side, *3 side chain or, on linkers, in order; H or OH if unused. Bridges are numbered along the chain shown (N, C = ends). Where no end group is shown, it is not given here. TATA = O=C(CC[*:1])N1CN(C(=O)CC[*:2])CN(C(=O)CC[*:3])C1; TBMB = c1c(C[*:1])cc(C[*:3])cc1C[*:2]

On to [Ac]ACVPCADFPIWYC [BCY00009245], for which the “affinity to CD38 (in words)” value in test [1] is given as “high affinity”.

B1: 66-50-16-T01-N001 (peptide)
peptide: ACYWNPFTACWSCEND
modifications: linker 2-10-13 via TATA (inferred)
notes: bicyclic
The molecule B1 displayed a Ki in test [2] of 90 nM.

B2: 66-50-19-T002-N001 (peptide)
peptide: ACYWNPFTACYSCTEN
modifications: linker 2-10-13 via TATA (inferred)
notes: bicyclic; also called 66-50-19-T02-N001
In test [2], B2 came in with an inhibition constant (Ki) of 316 nM. Compared with the last molecule, the Ki is about 3.5-fold higher.

B3: 66-08-52-N001 (peptide)
peptide: ACFTLDGECFLLGENCA
modifications: linker 2-9-16 via TBMB
notes: bicyclic
In turn, B3 gave a Ki in test [3] of 562 nM.
